The record followed here is publication PMC8930183, “Structure of the Pf12 and Pf41 heterodimeric complex of Plasmodium falciparum 6-cysteine proteins” (FEMS Microbes, 2022).

Substitutions are numbered along the chain they refer to.

What all share (conditions): both partners purified
The target of experiment [1] is T1, Pf41 D1D2 (residues 21-368), untagged (Plasmodium falciparum, UniProt Q8I1Y0 21-368).
T1 construct: Pf41, Plasmodium falciparum 6-cysteine protein, residues K21-S368 (D1 with the inserted-domain-like region ID, and D2); lacks the signal peptide and ten C-terminal residues; After TEV cleavage three residues, GAS, remain at the N-terminus as cloning artefacts; N-glycosylation sites kept; treated with PNGase F before crystallisation; also called Pf41 wildtype; source: Spodoptera frugiperda 21 …
T1 sequence (looked up): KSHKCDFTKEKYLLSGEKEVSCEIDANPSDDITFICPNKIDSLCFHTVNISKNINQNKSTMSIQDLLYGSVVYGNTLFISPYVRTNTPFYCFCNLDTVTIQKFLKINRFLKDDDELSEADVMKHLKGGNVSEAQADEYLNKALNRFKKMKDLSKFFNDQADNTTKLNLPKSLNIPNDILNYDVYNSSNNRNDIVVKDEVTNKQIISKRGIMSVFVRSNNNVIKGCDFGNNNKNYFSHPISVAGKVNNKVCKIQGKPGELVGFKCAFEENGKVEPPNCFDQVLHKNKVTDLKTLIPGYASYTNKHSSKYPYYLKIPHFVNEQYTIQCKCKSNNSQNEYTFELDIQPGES
Put plainly: AUC; sedimentation velocity, 20°C, 50 000 rpm, absorbance at 280 nm, c(s) analysis with SEDFIT.

In experiment [2] the target is T2, octa-histidine tagged Pf41 D1D2 (residues 21-368) (Plasmodium falciparum, UniProt Q8I1Y0 21-368).
T2 construct: Pf41, Plasmodium falciparum 6-cysteine protein, residues K21-S368; TEV-cleavable tag left on; loaded on NTA sensors; also called tagged wildtype Pf41; source: Spodoptera frugiperda 21 cells, secreted into growth media, purified as tagged protein (Ni-IMAC, SEC); not shown: His8, N-terminal, kept
T2 sequence: T1 sequence (looked up)
Put plainly: BLI; Octet RED96e; octa-histidine tagged Pf41 loaded on NTA sensors; untagged Pf12 wildtype, mutant or single domain 31-1000 nM; PBS pH 7.4, 0.1% BSA, 0.05% TWEEN-20, 25°C; read-out relative maximum response against wildtype. A general note: Biolayer interferometry detects binding as a change in optical thickness at a sensor tip.

The next experiment addresses T3, Pf41 D1D2 E340A (Plasmodium falciparum, UniProt Q8I1Y0 21-368, E340A).
T3 construct: Pf41, Plasmodium falciparum, residues K21-S368 (D1D2); source: Spodoptera frugiperda 21 cells, purified (Ni-IMAC, TEV cleavage, SEC); not shown: His8, N-terminal, cleaved
T3 sequence: T1 sequence (looked up) with E320A
Nature of the experiment: BLI; Octet RED96e; octa-histidine tagged Pf12 loaded on NTA sensors; untagged Pf41 wildtype or mutant 31-1000 nM; PBS pH 7.4, 0.1% BSA, 0.05% TWEEN-20, 25°C; read-out relative maximum response against wildtype.

Another experiment has as its target T4, Pf41 D1D2 H336A (Plasmodium falciparum, UniProt Q8I1Y0 21-368, H336 to alanine).
T4 construct: Pf41, Plasmodium falciparum, residues K21-S368 (D1D2); source: Spodoptera frugiperda 21 cells, purified (Ni-IMAC, TEV cleavage, SEC); not shown: His8, N-terminal, cleaved
T4 sequence: T1 sequence (looked up) with H316A
The description is as above.

A further experiment deals with T5, Pf41 D1D2 N339A (Plasmodium falciparum, UniProt Q8I1Y0 21-368, N339A).
T5 construct: Pf41, Plasmodium falciparum, residues K21-S368 (D1D2); source: Spodoptera frugiperda 21 cells, purified (Ni-IMAC, TEV cleavage, SEC); not shown: His8, N-terminal, cleaved
T5 sequence: T1 sequence (looked up) with N319A
The experiment is described as above.

For a further experiment, the target named is T6, Pf41 D1D2 F166L (Plasmodium falciparum, UniProt Q8I1Y0 21-368, F166 L).
T6 construct: Pf41, Plasmodium falciparum, residues K21-S368 (D1D2); source: Spodoptera frugiperda 21 cells, purified (Ni-IMAC, TEV cleavage, SEC); not shown: His8, N-terminal, cleaved
T6 sequence: T1 sequence (looked up) with F146L
Described as above.

For experiment [3], the target named is T1, Pf41 D1D2 (residues 21-368), untagged. The experiment is described as above.
Another experiment has as its target T7, Pf41 D1D2 E367A (Plasmodium falciparum, UniProt Q8I1Y0 21-368, E367A).
T7 construct: Pf41, Plasmodium falciparum, residues K21-S368 (D1D2); source: Spodoptera frugiperda 21 cells, purified (Ni-IMAC, TEV cleavage, SEC); not shown: His8, N-terminal, cleaved
T7 sequence: T1 sequence (looked up) with E347A
The description is as above.

Experiment [4] deals with T8, Pf12 D2 (residues E174-S304) (Plasmodium falciparum, UniProt C6KSX0).
T8 construct: Pf12, Plasmodium falciparum, C-terminal 6-cys domain D2, residues E174-S304; also called Pf12 D2 domain; source: Spodoptera frugiperda 21 cells, purified by the same protocol as Pf12 D1D2; not shown: His8, N-terminal, cleaved
Put plainly: BLI; Octet RED96e; nanobodies loaded on NTA sensors; untagged Pf12 or Pf41 (6-200 nM) or their domains in solution; PBS pH 7.4, 0.1% BSA, 0.05% TWEEN-20, 25°C; global 1:1 fit.

For experiment [5], the target named is T9, Pf12 D1D2 (residues 28-304), untagged (Plasmodium falciparum, UniProt C6KSX0).
T9 construct: Pf12, Plasmodium falciparum 6-cysteine protein, residues N28-S304 (domains D1 and D2); lacks the signal peptide and the GPI-anchor site; After TEV cleavage three residues, GAS, remain at the N-terminus as cloning artefacts; N-glycosylation sites kept; treated with PNGase F before crystallisation; also called Pf12 wildtype; source: Spodoptera frugiperda 21 cells, secreted into growth media, …
Described as above.

The target of experiment [6] is T10, Pf12 D1 (residues N28-L172) (Plasmodium falciparum, UniProt C6KSX0).
T10 construct: Pf12, Plasmodium falciparum, N-terminal 6-cys domain D1, residues N28-L172; also called Pf12 D1 domain; source: Spodoptera frugiperda 21 cells, purified by the same protocol as Pf12 D1D2; not shown: His8, N-terminal, cleaved
The experiment is described as above.

Experiment [7] has as its target T11, Pf41 D1D2 (residues 21-368), untagged (Plasmodium falciparum, UniProt Q8I1Y0).
T11 construct: Pf41, Plasmodium falciparum 6-cysteine protein, residues K21-S368 (D1 with the inserted-domain-like region ID, and D2); lacks the signal peptide and ten C-terminal residues; After TEV cleavage three residues, GAS, remain at the N-terminus as cloning artefacts; N-glycosylation sites kept; treated with PNGase F before crystallisation; also called Pf41 wildtype; source: Spodoptera frugiperda 21 …
Described as above.

Experiment [8] has as its target T12, Pf41 D2 (residues I242-S368) (Plasmodium falciparum 3D7, UniProt Q8I1Y0).
T12 construct: Pf41, Plasmodium falciparum, C-terminal 6-cys domain D2, residues I242-S368; also called Pf41 D2 domain; source: Spodoptera frugiperda 21 cells, purified by the same protocol as Pf41 D1D2; not shown: His8, N-terminal, cleaved
Described as above.

B1: Pf12 D1D2 (residues 28-304), untagged (domain or fragment, Plasmodium falciparum, UniProt C6KSX0 28-304, looked up)
chain: NLTCDFNDVYKLEFHPNQQTSVTKLCNLTPNVLEKVTIKCGSDKLNYNLYPPTCFEEVYASRNMMHLKKIKEFVIGSSMFMRRSLTPNKINEVSFRIPPNMMPEKPIYCFCENKKTITINGSNGNPSSKKDIINRGIVEIIIPSLNEKVKGCDFTTSESTIFSKGYSINEISNKSSNNQQDIVCTVKAHANDLIGFKCPSNYSVEPHDCFVSAFNLSGKNENLENKLKLTNIIMDHYNNTFYSRLPSLISDNWKFFCVCSKDNEKKLVFTVEASISS
notes: Pf12, Plasmodium falciparum 6-cysteine protein, residues N28-S304 (domains D1 and D2); lacks the signal peptide and the GPI-anchor site; After TEV cleavage three residues, GAS, remain at the N-terminus as cloning artefacts; N-glycosylation sites kept; treated with PNGase F before crystallisation; also called Pf12 wildtype; source: Spodoptera frugiperda 21 cells, secreted into growth media, …
Consider B1, for which the binding result in experiment [1] and in experiment [2] was “binds” in each case.

B2: octa-histidine tagged Pf12 D1D2 (residues 28-304) (domain or fragment)
chain: B1 chain
notes: Pf12, Plasmodium falciparum 6-cysteine protein, residues N28-S304 (domains D1 and D2); TEV-cleavable tag left on; loaded on NTA sensors; also called tagged wildtype Pf12; source: Spodoptera frugiperda 21 cells, secreted into growth media, purified as tagged protein (Ni-IMAC, SEC); not shown: His8, N-terminal, kept
B2: the binding result (in the experiment with Pf41 D1D2 E340A; with Pf41 D1D2 H336A; with Pf41 D1D2 N339A; in the experiment with Pf41 D1D2 F166L; in experiment [3]; with Pf41 D1D2 E367A) was “binds” throughout.

B3: nanobody H2 (VHH)
VHH: QVQLQESGGGSVQAGGSLRLSCTTSRRTRNTHAMGWFRQAPGKEREFVAAISWIDSSTYYADSVKGRFTMSGGNARNTVYLQMNSLEPEDTAVYYCAAGSVVAGFWEEVGYDYWGQGTQVTVSS
notes: alpaca, immunised with Pf12-Pf41 complex; Pf12-specific (D1 domain); source: E. coli WK6, periplasmic extract, purified (HisTrap, SEC)
As for B3, the binding result is reported as “no binding” in experiment [4], “binds” in experiment [5], “binds” in experiment [6] and “no binding” in [7].

B4: nanobody A6 (VHH)
VHH: QVQLQESGGGLVQPGGSLRLSCAASGGTIRSDGMGWFRQVPKKEREFVGMITYMGPVYTADSVEGRFAISRDNVKNTVYLQMNNLQPEDTAVYYCAVHVGGIYYYEGSYEYWGQGTQVTVSS
notes: alpaca, immunised with Pf12-Pf41 complex; Pf41-specific; source: E. coli WK6, periplasmic extract, purified (HisTrap, SEC)
On to B4, for which the binding result in experiment [7] is reported as “binds”; in experiment [8] it was “no binding”.

B5: nanobody G11 (VHH)
VHH: B4 VHH with G33S, E64K, A68T, T90A, V99I, G100S, I102L, G107A, E110K
notes: as for B4
Consider B5, for which the binding result in experiment [7] is on record as “binds”; in experiment [8] it was “no binding”.

B6: nanobody G12 (VHH)
VHH: B4 VHH with G33S, I51L, E64K, E88D, G100S, I102V, G107D, E110R
notes: as for B4
As for B6, the binding result in experiment [7] is “binds”; in experiment [8], “no binding”.
